Source: the Human Domainome abundance scans (Beltran et al. 2025)
± gives the uncertainty stated by the source.

B1: Serine/threonine-protein kinase A-Raf, residues 21 to 89; numbered along this chain, P10398 (parent)
chain: VKVYLPNKQRTVVTVRDGMSVYDSLDKALKVRGLNQDCCVVYRLIKGRKTVTAWDTAIAPLDGEELIVE

Variants of: B1
Assay: abundance fitness (aPCA) (normalised: wild type 0, dead -1); higher = more abundant; growth selection in yeast, the domain comes from the species named
Conditions: Homo sapiens

Row | Variant | abundance fitness
1 | D17T | -0.178 ± 0.055
2 | T50P | -0.715 ± 0.21
3 | L34W | -0.27 ± 0.055
4 | D62F | -0.608 ± 0.19
5 | Q9Y | -0.458 ± 0.3
6 | V51Y | -0.255 ± 0.2
7 | R10H | 0.041 ± 0.12
8 | V41D | -0.841 ± 0.19
9 | D23N | -0.294 ± 0.19
10 | L29C | -0.995 ± 0.3
11 | C38M | 0.12 ± 0.09
12 | Q36H | -0.203 ± 0.077
13 | T52R | -0.529 ± 0.063
14 | D17S | -0.04 ± 0.058
15 | V15G | -0.17 ± 0.036
16 | D62H | -0.073 ± 0.12
17 | I58G | -0.725 ± 0.094
18 | Q36Y | -0.169 ± 0.17
19 | K2A | -0.242 ± 0.082
20 | T11S | -0.582 ± 0.066
21 | Y42T | -0.561 ± 0.09
22 | K8T | -0.286 ± 0.052
23 | L44G | -0.767 ± 0.09
24 | V40E | -0.253 ± 0.11

Row | Variant | abundance fitness
25 | K8Y | -0.231 ± 0.18
26 | L34G | -1.1 ± 0.15
27 | T50E | -0.515 ± 0.38
28 | D55R | -0.343 ± 0.025
29 | R10C | 0.025 ± 0.077
30 | S20P | -0.728 ± 0.11
31 | V12F | -0.254 ± 0.19
32 | L29F | -0.191 ± 0.13
33 | V31T | 0.015 ± 0.08
34 | R16H | 0.191 ± 0.081
35 | L61E | -0.25 ± 0.087
36 | V41Y | -0.938 ± 0.38
37 | E65V | -0.077 ± 0.063
38 | E64N | -0.026 ± 0.35
39 | Q9C | -0.479 ± 0.12
40 | Q36C | -0.206 ± 0.12
41 | P6Q | -0.363 ± 0.17
42 | V13T | -0.864 ± 0.25
43 | L61W | -0.297 ± 0.078
44 | D26L | -0.137 ± 0.053
45 | S20T | 0 ± 0.073
46 | V68I | -0.127 ± 0.22
47 | C38Q | -0.037 ± 0.072
48 | L34Y | -0.459 ± 0.22

Row | Variant | abundance fitness
49 | V31A | 0.111 ± 0.056
50 | V15D | -0.33 ± 0.1
51 | A59G | 0.017 ± 0.049
52 | A59Y | 0.01 ± 0.44
53 | A59T | 0.054 ± 0.058
54 | M19I | -0.413 ± 0.11
55 | I45P | -1.1 ± 0.32
56 | D37A | -0.39 ± 0.097
57 | A28L | 0.029 ± 0.044
58 | V13Q | -0.468 ± 0.11
59 | E65R | -0.385 ± 0.059
60 | V13K | -0.955 ± 0.37
61 | K2T | 0.057 ± 0.065
62 | D23L | -0.493 ± 0.059
63 | A28G | -0.78 ± 0.09
64 | V51A | -0.102 ± 0.068
65 | N35K | -0.063 ± 0.086
66 | T14K | -0.008 ± 0.061
67 | D26H | -0.096 ± 0.23
68 | C39N | -0.848 ± 0.2
69 | C38I | -0.074 ± 0.1
70 | D55I | -0.452 ± 0.14
71 | V40K | -0.117 ± 0.13
72 | V21E | -0.65 ± 0.16

Row | Variant | abundance fitness
73 | T14Q | 0.034 ± 0.065
74 | K30V | -0.713 ± 0.094
75 | V51K | -0.001 ± 0.076
76 | M19R | -0.218 ± 0.032
77 | L61N | -0.371 ± 0.15
78 | L44K | -0.031 ± 0.076
79 | D26W | -0.113 ± 0.061
80 | K30T | -0.152 ± 0.095
81 | K30W | -0.969 ± 0.15
82 | E69P | -0.693 ± 0.17
83 | I45M | -0.508 ± 0.12
84 | E69S | -0.463 ± 0.13
85 | G33K | -0.41 ± 0.16
86 | R48Q | -0.094 ± 0.095
87 | D37I | -0.39 ± 0.26
88 | K8W | -0.355 ± 0.054
89 | M19C | -0.091 ± 0.11
90 | L29E | -0.947 ± 0.13
91 | K46A | 0.001 ± 0.037
92 | R16S | -0.048 ± 0.042
93 | T52M | 0.118 ± 0.05
94 | I58P | -0.872 ± 0.21
95 | L25E | -0.944 ± 0.18
96 | S24K | -0.912 ± 0.17

Row | Variant | abundance fitness
97 | R16V | -0.133 ± 0.044
98 | N7S | -0.321 ± 0.042
99 | N35W | -0.866 ± 0.15
100 | Y22C | -0.176 ± 0.12
101 | N35P | -0.754 ± 0.15
102 | I45V | -0.067 ± 0.12
103 | D17L | -0.319 ± 0.047
104 | L61G | -0.176 ± 0.048
105 | N35V | -0.161 ± 0.053
106 | D55A | -0.346 ± 0.041
107 | I58T | -0.729 ± 0.097
108 | G18Y | -0.638 ± 0.2
109 | P60L | 0.001 ± 0.045
110 | V3F | -0.552 ± 0.092
111 | I45S | -0.087 ± 0.071
112 | A53L | -0.455 ± 0.075
113 | C38T | -0.004 ± 0.082
114 | L61I | -0.206 ± 0.28
115 | K49Q | -0.566 ± 0.13
116 | D62G | -0.047 ± 0.045
117 | S20Q | -0.799 ± 0.15
118 | V1R | -0.487 ± 0.48
119 | G18C | -0.261 ± 0.084
120 | L44S | -0.15 ± 0.06

Row | Variant | abundance fitness
121 | I58Y | 0.146 ± 0.088
122 | Q9L | -0.455 ± 0.063
123 | T52D | -0.978 ± 0.26
124 | V12A | -0.503 ± 0.077
125 | D37H | -0.097 ± 0.1
126 | S20W | -0.847 ± 0.14
127 | R10F | 0.147 ± 0.11
128 | K2V | -0.118 ± 0.067
129 | S24E | -0.652 ± 0.11
130 | D55T | -0.335 ± 0.053
131 | V31D | -0.265 ± 0.25
132 | L5V | -0.896 ± 0.12
133 | V51M | 0.093 ± 0.07
134 | P6C | -0.55 ± 0.24
135 | G63Y | -0.376 ± 0.14
136 | K49H | -0.551 ± 0.14
137 | D26A | 0.069 ± 0.071
138 | L5W | 0.113 ± 0.062
139 | K49G | -0.863 ± 0.097
140 | G63T | -0.128 ± 0.084
141 | A53G | -0.033 ± 0.057
142 | R16E | -0.037 ± 0.062
143 | V31E | 0.066 ± 0.067
144 | I45H | -0.026 ± 0.14

Row | Variant | abundance fitness
145 | D17H | -0.279 ± 0.15
146 | R43K | -0.205 ± 0.083
147 | C38R | -0.094 ± 0.051
148 | D17F | -0.114 ± 0.15
149 | W54G | -1.03 ± 0.14
150 | L61V | -0.112 ± 0.057
151 | V41S | -0.515 ± 0.17
152 | Q36E | -0.485 ± 0.3
153 | R16M | -0.181 ± 0.082
154 | Y22T | -0.383 ± 0.13
155 | Y4Q | 0.009 ± 0.059
156 | V15L | -0.105 ± 0.042
157 | E69Y | -0.809 ± 0.17
158 | Y4S | -0.022 ± 0.047
159 | L44D | -0.65 ± 0.45
160 | Q36L | -0.335 ± 0.072
161 | V3I | -0.298 ± 0.16
162 | I45W | -0.1 ± 0.073
163 | D55L | -0.908 ± 0.076
164 | K49S | -0.8 ± 0.11
165 | R32D | -0.487 ± 0.34
166 | K2S | -0.172 ± 0.091
167 | D17W | -0.304 ± 0.052
